This experiment concerns the target T1, C1q isolated from mouse serum (mouse, UniProt P98086 23-245; P14106 26-253; Q02105 30-246).
T1 construct: complement C1q subcomponent chain A (C1qA), mouse; complement C1q subcomponent chain B (C1qB), mouse; complement C1q subcomponent chain C (C1qC), mouse; also called purified C1q; copies: 6 + 6 + 6
The experiment in a line: ELISA; NP1, NP2 or PTX3 coated (10 µg/ml in PBS, overnight 4 °C), blocked with 4% BSA in PBS-T; C1q 5.6–45 µg/ml in PBS, 1 h at RT; bound C1q detected with anti-C1qb antibody. The conditions noted are these: both partners purified.

T1 sequence (P98086 23-245, chain 1 of 3): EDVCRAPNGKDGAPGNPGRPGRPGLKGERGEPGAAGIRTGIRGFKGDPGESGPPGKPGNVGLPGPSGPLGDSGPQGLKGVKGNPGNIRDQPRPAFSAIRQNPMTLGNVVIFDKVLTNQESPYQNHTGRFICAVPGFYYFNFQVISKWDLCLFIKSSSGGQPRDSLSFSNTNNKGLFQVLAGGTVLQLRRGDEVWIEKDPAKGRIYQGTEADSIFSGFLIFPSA
T1 sequence (P14106 26-253, chain 2 of 3): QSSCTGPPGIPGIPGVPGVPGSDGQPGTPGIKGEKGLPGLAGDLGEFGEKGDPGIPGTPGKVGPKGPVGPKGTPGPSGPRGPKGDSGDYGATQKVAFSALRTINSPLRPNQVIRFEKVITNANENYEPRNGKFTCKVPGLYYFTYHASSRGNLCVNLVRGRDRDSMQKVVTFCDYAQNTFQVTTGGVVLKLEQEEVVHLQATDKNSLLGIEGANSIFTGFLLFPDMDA
T1 sequence (Q02105 30-246, chain 3 of 3): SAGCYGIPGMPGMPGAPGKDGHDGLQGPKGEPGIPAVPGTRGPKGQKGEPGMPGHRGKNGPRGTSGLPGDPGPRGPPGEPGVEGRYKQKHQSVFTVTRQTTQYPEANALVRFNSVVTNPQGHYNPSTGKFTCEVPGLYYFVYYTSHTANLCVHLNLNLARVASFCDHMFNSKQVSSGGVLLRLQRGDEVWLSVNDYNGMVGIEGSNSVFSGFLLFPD

B1: Recombinant human His-tagged neuronal pentraxin 1 (natural protein, UniProt Q15818 23-432, looked up)
chain: QDFGPTRFICTSVPVDADMCAASVAAGGAEELRSSVLQLRETVLQQKETILSQKETIRELTAKLGRCESQSTLDPGAGEARAGGGRKQPGSGKNTMGDLSRTPAAETLSQLGQTLQSLKTRLENLEQYSRLNSSSQTNSLKDLLQSKIDELERQVLSRVNTLEEGKGGPRNDTEERVKIETALTSLHQRISELEKGQKDNRPGDKFQLTFPLRTNYMYAKVKKSLPEMYAFTVCMWLKSSATPGVGTPFSYAVPGQANELVLIEWGNNPMEILINDKVAKLPFVINDGKWHHICVTWTTRDGVWEAYQDGTQGGSGENLAPYHPIKPQGVLVLGQEQDTLGGGFDATQAFVGELAHFNIWDRKLTPGEVYNLATCSTKALSGNVIAWAESHIEIYGGATKWTFEACRQIN
notes: neuronal pentraxin 1 (NP1), human, recombinant; see the vendor's data sheet; also called NP1; NPs (with NP2); source: bought: R&D Systems (7707-NP-050)
For B1, the binding result is on record as “binds”.

B2: Recombinant human His-tagged neuronal pentraxin 2 (natural protein, UniProt P47972 16-431, looked up)
chain: GAQDSPAPGSRFVCTALPPEAVHAGCPLPAMPMQGGAQSPEEELRAAVLQLRETVVQQKETLGAQREAIRELTGKLARCEGLAGGKARGAGATGKDTMGDLPRDPGHVVEQLSRSLQTLKDRLESLEHQLRANVSNAGLPGDFREVLQQRLGELERQLLRKVAELEDEKSLLHNETSAHRQKTESTLNALLQRVTELERGNSAFKSPDAFKVSLPLRTNYLYGKIKKTLPELYAFTICLWLRSSASPGIGTPFSYAVPGQANEIVLIEWGNNPIELLINDKVAQLPLFVSDGKWHHICVTWTTRDGMWEAFQDGEKLGTGENLAPWHPIKPGGVLILGQEQDTVGGRFDATQAFVGELSQFNIWDRVLRAQEIVNIANCSTNMPGNIIPWVDNNVDVFGGASKWPVETCEERLLDL
notes: neuronal pentraxin 2 (NP2), human, recombinant; see the vendor's data sheet; also called NP2; NPs (with NP1); source: bought: R&D Systems (7816-NP-050)
Take B2: the binding result was “binds”.

The values above are taken from article PMC7897678 (Frontiers in Immunology, 2020).
